Source: article PMC6978305, “Formation of S. pombe Erh1 homodimer mediates gametogenic gene silencing and meiosis progression” (Scientific Reports, 2020)

Molecular target: the molecule itself
Assay: SEC-MALS; SEC-MALLS of purified recombinant proteins in solution

B1: S. pombe Erh1, wild type, recombinant (natural protein, UniProt G2TRN4 1-104, looked up)
chain: MSPPPAESHIILLIQQGSDPKTRIWSDHCSLRSAIEYIVGVYQTNQAVSEKESIDVSRFFNFFDEIYDCVPLVYDRHFRAYIPHEKQWLLHHAQEYLTAARQIP
notes: Erh1, S. pombe, full length, from plasmid pMG921 (pGEX-6P1); After 3C cleavage some residues of the N-terminal tag remain (4 of them are seen in protomer B of the crystal structure); also called wild-type Erh1; apo-Erh1; source: E. coli BL21 (DE3) Codon+, purified (GSH-sepharose, 3C cleavage, Superdex 75); not shown: GST, N-terminal, cleaved
stoichiometry N: 2
